Each sequence was assayed on Escherichia coli TOP10 (assay: shrunken log2 fold change of peptide-encoding DNA abundance (4.5 h post-induction vs induction); higher = less antimicrobial activity (less host growth inhibition)). Conditions: time post-induction: 4.5 h; library: site-saturation at positions 5, 18, 19, 20.
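Further: peptides expressed intracellularly from a pBAD plasmid library in pooled LB shake-flask culture, induced with 0.3% L-arabinose, DNA abundance read by NGS, three biological replicates, DESeq2 with apeglm shrinkage.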

Going from RRIRYRPPRLPRPRPRPTSAPRP to RRIRYRPPRLPRPRPRPTSDPRP, the “shrunken log2 fold change” value falls from 0.0113 to -0.459.

Going from RRIRYRPPRLPRPRPRPTSQPRP to RRIRYRPPRLPRPRPRPTSTPRP, the “shrunken log2 fold change” value falls from 0.054 to -0.203.

Going from RRIRYRPPRLPRPRPRPTTCPRP to RRIRYRPPRLPRPRPRPTTHPRP, the “shrunken log2 fold change” value rises from -0.923 to -0.647.

RRIRYRPPRLPRPRPRPTVQPRP and RRIRYRPPRLPRPRPRPVCPPRP are within 0.2 log units of each other in “shrunken log2 fold change” value: 0.028 for the first, 0.101 for the second.

First: RRIRYRPPRLPRPRPRPVDDPRP
Second: RRIRYRPPRLPRPRPRPVGNPRP
The “shrunken log2 fold change” value of the first is lower: -0.443 for the first, -0.0681 for the second.

Compared with RRIRYRPPRLPRPRPRPVGWPRP, RRIRYRPPRLPRPRPRPVHTPRP is lower in “shrunken log2 fold change” value: 0.344 for the first, -0.562 for the second.

First: RRIRYRPPRLPRPRPRPVIEPRP
Second: RRIRYRPPRLPRPRPRPVKGPRP
The “shrunken log2 fold change” value of the first is lower: -0.424 for the first, -0.015 for the second.

RRIRYRPPRLPRPRPRPVKTPRP and RRIRYRPPRLPRPRPRPVKVPRP are within 0.2 log units of each other in “shrunken log2 fold change” value: -0.0365 for the first, 0.0182 for the second.

Going from RRIRYRPPRLPRPRPRPVNFPRP to RRIRYRPPRLPRPRPRPVNMPRP, the “shrunken log2 fold change” value falls from 0.00408 to -0.47.

RRIRYRPPRLPRPRPRPVPCPRP and RRIRYRPPRLPRPRPRPVPSPRP are within 0.2 log units of each other in “shrunken log2 fold change” value: -0.226 for the first, -0.404 for the second.

RRIRYRPPRLPRPRPRPVPTPRP and RRIRYRPPRLPRPRPRPVQMPRP are within 0.2 log units of each other in “shrunken log2 fold change” value: -0.0167 for the first, -0.0524 for the second.

First: RRIRYRPPRLPRPRPRPVSIPRP
Second: RRIRYRPPRLPRPRPRPVSTPRP
The “shrunken log2 fold change” value of the first is lower: -0.821 for the first, -0.511 for the second.

Going from RRIRYRPPRLPRPRPRPVVEPRP to RRIRYRPPRLPRPRPRPVVQPRP, the “shrunken log2 fold change” value rises from -0.34 to 0.0013.

Going from RRIRYRPPRLPRPRPRPVVYPRP to RRIRYRPPRLPRPRPRPVYFPRP, the “shrunken log2 fold change” value falls from 0.0874 to -1.42.

Going from RRIRYRPPRLPRPRPRPVYKPRP to RRIRYRPPRLPRPRPRPWAPPRP, the “shrunken log2 fold change” value rises from -0.924 to -0.289.

RRIRYRPPRLPRPRPRPWCAPRP and RRIRYRPPRLPRPRPRPWDRPRP are within 0.2 log units of each other in “shrunken log2 fold change” value: -0.255 for the first, -0.103 for the second.

Going from RRIRYRPPRLPRPRPRPWDWPRP to RRIRYRPPRLPRPRPRPWFFPRP, the “shrunken log2 fold change” value falls from -0.0724 to -0.841.

RRIRYRPPRLPRPRPRPWGWPRP and RRIRYRPPRLPRPRPRPWIKPRP are within 0.2 log units of each other in “shrunken log2 fold change” value: -0.0384 for the first, 0.106 for the second.

RRIRYRPPRLPRPRPRPWKAPRP and RRIRYRPPRLPRPRPRPWKLPRP are within 0.2 log units of each other in “shrunken log2 fold change” value: -0.0135 for the first, -0.121 for the second.

Going from RRIRYRPPRLPRPRPRPWLKPRP to RRIRYRPPRLPRPRPRPWLTPRP, the “shrunken log2 fold change” value falls from -0.0198 to -0.558.

Compared with RRIRYRPPRLPRPRPRPWNIPRP, RRIRYRPPRLPRPRPRPWPTPRP is lower in “shrunken log2 fold change” value: -0.01 for the first, -0.426 for the second.

RRIRYRPPRLPRPRPRPWQHPRP and RRIRYRPPRLPRPRPRPWTEPRP are within 0.2 log units of each other in “shrunken log2 fold change” value: -0.185 for the first, -0.0689 for the second.

Compared with RRIRYRPPRLPRPRPRPYFMPRP, RRIRYRPPRLPRPRPRPYGAPRP is higher in “shrunken log2 fold change” value: -1.17 for the first, -0.202 for the second.

RRIRYRPPRLPRPRPRPYGQPRP and RRIRYRPPRLPRPRPRPYHHPRP are within 0.2 log units of each other in “shrunken log2 fold change” value: -0.0112 for the first, -0.0688 for the second.

RRIRYRPPRLPRPRPRPYHKPRP and RRIRYRPPRLPRPRPRPYHRPRP are within 0.2 log units of each other in “shrunken log2 fold change” value: -0.249 for the first, -0.236 for the second.

RRIRYRPPRLPRPRPRPYIGPRP and RRIRYRPPRLPRPRPRPYLYPRP are within 0.2 log units of each other in “shrunken log2 fold change” value: -0.0919 for the first, -0.109 for the second.

Going from RRIRYRPPRLPRPRPRPYNCPRP to RRIRYRPPRLPRPRPRPYNHPRP, the “shrunken log2 fold change” value falls from -0.0167 to -1.5.

First: RRIRYRPPRLPRPRPRPYNQPRP
Second: RRIRYRPPRLPRPRPRPYNRPRP
The “shrunken log2 fold change” value of the first is lower: -0.922 for the first, -0.0152 for the second.

Going from RRIRYRPPRLPRPRPRPYPCPRP to RRIRYRPPRLPRPRPRPYPFPRP, the “shrunken log2 fold change” value rises from -0.268 to -0.0218.

RRIRYRPPRLPRPRPRPYPRPRP and RRIRYRPPRLPRPRPRPYQEPRP are within 0.2 log units of each other in “shrunken log2 fold change” value: -0.097 for the first, -0.00233 for the second.

RRIRYRPPRLPRPRPRPYRCPRP and RRIRYRPPRLPRPRPRPYRSPRP are within 0.2 log units of each other in “shrunken log2 fold change” value: 0.0155 for the first, 0.0135 for the second.

RRIRYRPPRLPRPRPRPYSNPRP and RRIRYRPPRLPRPRPRPYTIPRP are within 0.2 log units of each other in “shrunken log2 fold change” value: -0.127 for the first, -0.0225 for the second.

First: RRIRYRPPRLPRPRPRPYVEPRP
Second: RRIRYRPPRLPRPRPRPYWAPRP
The “shrunken log2 fold change” value of the first is higher: -0.00822 for the first, -1.11 for the second.

Going from RRIRYRPPRLPRPRPRPYWCPRP to RRIRYRPPRLPRPRPRPYWNPRP, the “shrunken log2 fold change” value falls from -0.0606 to -1.63.

With RRIRYRPPRLPRPRPRPYYCPRP the “shrunken log2 fold change” value was 0.00489.

Source: the supplement of paper PMC9112550, “Optimization of the antimicrobial peptide Bac7 by deep mutational scanning” (BMC Biology, 2022)
